Measurements: the supplement of paper PMC10567573

B1: RHOBTB1 (parent)
chain: TFGDHHKDRRFAYGRSDVVVLCFS
B2: ADAMTSL2 (parent)
chain: KKPPEESTCFERPCFKWYTSPWSE

Variants of: B1
Test: protein stability index of a GFP-peptide fusion (GPS, HEK-293T) (PSI 1-6); higher = more stable
Conditions: c terminus: a fixed tail appended
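Further: lentivirally expressed fusions sorted by FACS into six bins by GFP to DsRed ratio, PSI derived from sequencing read proportions per bin multiplied by bin number.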

| Variant | protein stability index |
| --- | --- |
| TCGDHHKDRRFAYGRSDVVVLCFS | 3.44 |
| TMGDHHKDRRFAYGRSDVVVLCFS | 1.81 |
| TAGDHHKDRRFAYGRSDVVVLCFS | 1.63 |
| TSGDHHKDRRFAYGRSDVVVLCFS | 1.02 |
| TKGDHHKDRRFAYGRSDVVVLCFS | 2.65 |
| THGDHHKDRRFAYGRSDVVVLCFS | 1.85 |
| TDGDHHKDRRFAYGRSDVVVLCFS | 2.19 |
| TNGDHHKDRRFAYGRSDVVVLCFS | 2.23 |
| TPGDHHKDRRFAYGRSDVVVLCFS | 3.35 |
| TEGDHHKDRRFAYGRSDVVVLCFS | 1.31 |
| TIGDHHKDRRFAYGRSDVVVLCFS | 2.17 |
| TWGDHHKDRRFAYGRSDVVVLCFS | 2.28 |
| TLGDHHKDRRFAYGRSDVVVLCFS | 2.32 |
| TFGDDHKDRRFAYGRSDVVVLCFS | 2.41 |
| TFGDFHKDRRFAYGRSDVVVLCFS | 2.45 |
| TFGDLHKDRRFAYGRSDVVVLCFS | 2.09 |
| TFGDYHKDRRFAYGRSDVVVLCFS | 2.15 |
| TFGDQHKDRRFAYGRSDVVVLCFS | 2.74 |
| TFGDRHKDRRFAYGRSDVVVLCFS | 2.59 |
| TFGDPHKDRRFAYGRSDVVVLCFS | 3.97 |
| TFGDWHKDRRFAYGRSDVVVLCFS | 3.81 |
| TFGDAHKDRRFAYGRSDVVVLCFS | 2.25 |
| TFGDGHKDRRFAYGRSDVVVLCFS | 1.21 |
| TFGDCHKDRRFAYGRSDVVVLCFS | 2.27 |
| TFGDHHKYRRFAYGRSDVVVLCFS | 4.4 |

| Variant | protein stability index |
| --- | --- |
| TFGDHHKPRRFAYGRSDVVVLCFS | 2.77 |
| TFGDHHKNRRFAYGRSDVVVLCFS | 2.29 |
| TFGDHHKHRRFAYGRSDVVVLCFS | 2.82 |
| TFGDHHKFRRFAYGRSDVVVLCFS | 1.92 |
| TFGDHHKWRRFAYGRSDVVVLCFS | 3.29 |
| TFGDHHKSRRFAYGRSDVVVLCFS | 2.76 |
| TFGDHHKQRRFAYGRSDVVVLCFS | 4.86 |
| TFGDHHKRRRFAYGRSDVVVLCFS | 2.96 |
| TFGDHHKGRRFAYGRSDVVVLCFS | 1.87 |
| TFGDHHKERRFAYGRSDVVVLCFS | 2.77 |
| TFGDHHKLRRFAYGRSDVVVLCFS | 4.19 |
| TFFDHHKDRRFAYGRSDVVVLCFS | 1.39 |
| TFWDHHKDRRFAYGRSDVVVLCFS | 2.33 |
| TFSDHHKDRRFAYGRSDVVVLCFS | 2.45 |
| TFNDHHKDRRFAYGRSDVVVLCFS | 1.98 |
| TFIDHHKDRRFAYGRSDVVVLCFS | 2.42 |
| TFEDHHKDRRFAYGRSDVVVLCFS | 2.98 |
| TFPDHHKDRRFAYGRSDVVVLCFS | 2.48 |
| TFKDHHKDRRFAYGRSDVVVLCFS | 1.74 |
| TFADHHKDRRFAYGRSDVVVLCFS | 1.83 |
| TFVDHHKDRRFAYGRSDVVVLCFS | 3.29 |
| TFDDHHKDRRFAYGRSDVVVLCFS | 2.11 |
| TFRDHHKDRRFAYGRSDVVVLCFS | 1.52 |
| TFGDHFKDRRFAYGRSDVVVLCFS | 2.33 |
| TFGDHCKDRRFAYGRSDVVVLCFS | 1.2 |

| Variant | protein stability index |
| --- | --- |
| TFGDHTKDRRFAYGRSDVVVLCFS | 1.94 |
| TFGDHEKDRRFAYGRSDVVVLCFS | 3 |
| TFGDHQKDRRFAYGRSDVVVLCFS | 2.14 |
| TFGDHKKDRRFAYGRSDVVVLCFS | 2.33 |
| TFGDHSKDRRFAYGRSDVVVLCFS | 2.21 |
| TFGDHLKDRRFAYGRSDVVVLCFS | 3.15 |
| TFGDHHTDRRFAYGRSDVVVLCFS | 3.37 |
| TFGDHHNDRRFAYGRSDVVVLCFS | 3.44 |
| TFGDHHLDRRFAYGRSDVVVLCFS | 1.46 |
| TFGDHHDDRRFAYGRSDVVVLCFS | 2.76 |
| TFGDHHSDRRFAYGRSDVVVLCFS | 3.12 |
| TFGDHHFDRRFAYGRSDVVVLCFS | 3.68 |
| TFGDHHQDRRFAYGRSDVVVLCFS | 2.38 |
| TFGDHHCDRRFAYGRSDVVVLCFS | 2.42 |
| TFGDHHGDRRFAYGRSDVVVLCFS | 3.09 |
| TFGDHHWDRRFAYGRSDVVVLCFS | 3.28 |
| TFGDHHMDRRFAYGRSDVVVLCFS | 3.46 |
| TFGDHHADRRFAYGRSDVVVLCFS | 1.53 |
| TFGDHHYDRRFAYGRSDVVVLCFS | 3.88 |
| KFGDHHKDRRFAYGRSDVVVLCFS | 2.48 |
| PFGDHHKDRRFAYGRSDVVVLCFS | 2.61 |
| EFGDHHKDRRFAYGRSDVVVLCFS | 2.06 |
| QFGDHHKDRRFAYGRSDVVVLCFS | 2.25 |
| VFGDHHKDRRFAYGRSDVVVLCFS | 3.58 |
| NFGDHHKDRRFAYGRSDVVVLCFS | 1.89 |

| Variant | protein stability index |
| --- | --- |
| AFGDHHKDRRFAYGRSDVVVLCFS | 2.71 |
| LFGDHHKDRRFAYGRSDVVVLCFS | 2.59 |
| FFGDHHKDRRFAYGRSDVVVLCFS | 4.17 |
| TFGHHHKDRRFAYGRSDVVVLCFS | 1.51 |
| TFGQHHKDRRFAYGRSDVVVLCFS | 3.51 |
| TFGKHHKDRRFAYGRSDVVVLCFS | 2.06 |
| TFGYHHKDRRFAYGRSDVVVLCFS | 3.19 |
| TFGTHHKDRRFAYGRSDVVVLCFS | 2.54 |
| TFGPHHKDRRFAYGRSDVVVLCFS | 2.46 |
| TFGWHHKDRRFAYGRSDVVVLCFS | 3.1 |
| TFGEHHKDRRFAYGRSDVVVLCFS | 3.4 |
| TFGNHHKDRRFAYGRSDVVVLCFS | 2.15 |
| TFGLHHKDRRFAYGRSDVVVLCFS | 3.29 |
| TFGDHHKDIRFAYGRSDVVVLCFS | 3.77 |
| TFGDHHKDDRFAYGRSDVVVLCFS | 3.4 |
| TFGDHHKDHRFAYGRSDVVVLCFS | 3.56 |
| TFGDHHKDPRFAYGRSDVVVLCFS | 3 |
| TFGDHHKDLRFAYGRSDVVVLCFS | 2.66 |
| TFGDHHKDERFAYGRSDVVVLCFS | 2.75 |
| TFGDHHKDNRFAYGRSDVVVLCFS | 2.58 |
| TFGDHHKDGRFAYGRSDVVVLCFS | 2.82 |
| TFGDHHKDKRFAYGRSDVVVLCFS | 1.97 |

Variants of: B2
Test: as above
Conditions: c terminus: a fixed tail appended

| Variant | protein stability index |
| --- | --- |
| KKEPEESTCFERPCFKWYTSPWSE | 3.04 |
| KKAPEESTCFERPCFKWYTSPWSE | 2.83 |
| KKVPEESTCFERPCFKWYTSPWSE | 2.16 |
| KKSPEESTCFERPCFKWYTSPWSE | 2.29 |
| KKDPEESTCFERPCFKWYTSPWSE | 2.77 |
| KKPPEESTCFDRPCFKWYTSPWSE | 2.38 |
| KKPPEESTCFTRPCFKWYTSPWSE | 2.05 |
| KKPPEESTCFPRPCFKWYTSPWSE | 2.46 |
| KKPPEESTCFGRPCFKWYTSPWSE | 1.87 |
| KKPPEESTCFWRPCFKWYTSPWSE | 1.64 |
| KKPPEESTCFERPCFKWYTSPWCE | 2.23 |
| KKPPEESTCFERPCFKWYTSPWEE | 3.02 |
| KKPPEESTCFERPCFKWYTSPWGE | 1.91 |
| KKPPEESTCFERPCFKWYTSPWQE | 2.47 |
| KKPPEESTCFERPCFKWYTSPWYE | 2.35 |
| KKPPEESTCFERPCFKWYTSPWAE | 1.74 |
| KKPPEASTCFERPCFKWYTSPWSE | 1.91 |
| KKPPEFSTCFERPCFKWYTSPWSE | 1.9 |
| KKPPEVSTCFERPCFKWYTSPWSE | 2.65 |
| KKPPEEVTCFERPCFKWYTSPWSE | 2.42 |
| KKPPEERTCFERPCFKWYTSPWSE | 2.19 |
| KKPPEEKTCFERPCFKWYTSPWSE | 2.21 |
| KKPPEETTCFERPCFKWYTSPWSE | 2.39 |

| Variant | protein stability index |
| --- | --- |
| KKPPEESTCFERFCFKWYTSPWSE | 2.18 |
| KKPPEESTCFERNCFKWYTSPWSE | 2.32 |
| KKPPEESTCFERMCFKWYTSPWSE | 2.02 |
| KKPPEESTCFERGCFKWYTSPWSE | 2.27 |
| KKPPEESTCFERICFKWYTSPWSE | 2.02 |
| KKPPEESTCFERDCFKWYTSPWSE | 2.39 |
| KKPPEESTWFERPCFKWYTSPWSE | 2.04 |
| KKPPEESTPFERPCFKWYTSPWSE | 2.7 |
| KKPPEESTAFERPCFKWYTSPWSE | 2.43 |
| KKPPEESTCKERPCFKWYTSPWSE | 3.55 |
| KKPPEESTCNERPCFKWYTSPWSE | 2.45 |
| KKPPEESTCSERPCFKWYTSPWSE | 3.46 |
| KKPPEESTCAERPCFKWYTSPWSE | 2.51 |
| KKPPEESTCFERPCFKWYTSPKSE | 3.6 |
| KKPPEESTCFERPCFKWYTSPQSE | 3.82 |
| KKPPEESTCFERPCFKWYTSPSSE | 3.61 |
| KKPPRESTCFERPCFKWYTSPWSE | 2.02 |
| KKPPNESTCFERPCFKWYTSPWSE | 2.29 |
| KKPPHESTCFERPCFKWYTSPWSE | 2.09 |
| KKPPPESTCFERPCFKWYTSPWSE | 1.82 |
| KKPPEESTCFERPCFKWYTSEWSE | 2.72 |
| KKPPEESTCFERPCFKWYTSHWSE | 2.46 |
| KKPPEESTCFERPCFKWYTSAWSE | 2.41 |

| Variant | protein stability index |
| --- | --- |
| KKPPEESVCFERPCFKWYTSPWSE | 2.28 |
| KKPPEESYCFERPCFKWYTSPWSE | 1.68 |
| KKPPEESNCFERPCFKWYTSPWSE | 2.56 |
| KKPPEESTCFERPCFKWKTSPWSE | 3.04 |
| KKPPEESTCFERPCFKWTTSPWSE | 3 |
| KKPPEESTCFEMPCFKWYTSPWSE | 2.16 |
| KKPPEESTCFEVPCFKWYTSPWSE | 2.29 |
| KKPPEESTCFERPLFKWYTSPWSE | 2.25 |
| KKPPEESTCFERPTFKWYTSPWSE | 2.42 |
| KKPPEESTCFERPCFKWYTSPWSC | 2.22 |
| KKPPEESTCFERPCFKWYTSPWSG | 2.27 |
| KKPPEESTCFERPCFKWYTAPWSE | 2.88 |
| KKPPEESTCFERPCFKWYTDPWSE | 2.42 |
| KKPPEESTCFERPCFKWYTWPWSE | 4.33 |
| KKPPEESTCFERPCFKWYTTPWSE | 2.15 |
| KKPPEESTCFERPCFKWYTCPWSE | 1.99 |
| KKPPEESTCFERPCFKWYTMPWSE | 2.08 |
| KKPPEESTCFERPCFNWYTSPWSE | 2.63 |
| KKPPEESTCFERPCFGWYTSPWSE | 1.67 |
| KKPPEESTCFERPCFHWYTSPWSE | 4.02 |
| KKPPEESTCFERPCFAWYTSPWSE | 2.62 |
| KKPPEESTCFERPCFRWYTSPWSE | 2.27 |
| KKPPEESTCFERPCFQWYTSPWSE | 2.8 |

| Variant | protein stability index |
| --- | --- |
| KKPPEESTCFERPCFKRYTSPWSE | 2.96 |
| KKPPEESTCFERPCFKKYTSPWSE | 3.53 |
| KKPPEESTCFERPCFKCYTSPWSE | 2.56 |
| KKPPEESTCFERPCFKQYTSPWSE | 2.85 |
| KKPPEESTCFERPCFKAYTSPWSE | 3.79 |
| KKPFEESTCFERPCFKWYTSPWSE | 1.89 |
| KKPMEESTCFERPCFKWYTSPWSE | 2.29 |
| KKPTEESTCFERPCFKWYTSPWSE | 3 |
| KKPGEESTCFERPCFKWYTSPWSE | 3.23 |
| KKPPEESTCFERPCFKWYDSPWSE | 2.65 |
| KKPPEESTCFERPCFKWYGSPWSE | 2.82 |
| YKPPEESTCFERPCFKWYTSPWSE | 1.83 |
| LKPPEESTCFERPCFKWYTSPWSE | 2.35 |
| VKPPEESTCFERPCFKWYTSPWSE | 2.29 |
| NKPPEESTCFERPCFKWYTSPWSE | 3.12 |
| KNPPEESTCFERPCFKWYTSPWSE | 2.94 |
| KFPPEESTCFERPCFKWYTSPWSE | 2.13 |
| KGPPEESTCFERPCFKWYTSPWSE | 2.73 |
| KKPPEESTCFERPCLKWYTSPWSE | 1.61 |
| KKPPEESTCFERPCNKWYTSPWSE | 2.63 |
| KKPPEESTCFERPCPKWYTSPWSE | 2.31 |
| KKPPEESTCFERPCTKWYTSPWSE | 2.89 |
